Data: the supplement of paper PMC9233669
Variants at the floor of the assay were thinned out.

Experiments:
biotinyl-Phe-oxazolone = test: self-aminoacylation, catalytic enhancement (BFO) (fold over background); higher = more active; k-Seq, kA / k0A0; sequences stand for … in GGGAAUGGAUCCACAUCUACGAAUUC…UUCACUGCAGACUUGACGAAGCUG
How it was run: (§1)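 The uncatalyzed rate is the low-activity peak of a bimodal Gaussian fit, and catalytic enhancement is median kA divided by it. The kA values came from pseudo-first-order fits, with 1000 bootstraps, of per-sequence fraction reacted measured by streptavidin capture, triplicate qPCR and Illumina sequencing. Mutagenized RNA pools with a 21-nt variable region (0.43 μM) were reacted with each biotinyl-aminoacyl-oxazolone at 2–1250 μM in 50 μL HEPES/NaCl/KCl/MgCl2/CaCl2 buffer with 5% acetonitrile, pH 6.9–7.0, for 90 minutes at room temperature.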

biotinyl-Ile-oxazolone = test: self-aminoacylation, catalytic enhancement (BIO) (fold over background); higher = more active; k-Seq, kA / k0A0; sequences stand for … in GGGAAUGGAUCCACAUCUACGAAUUC…UUCACUGCAGACUUGACGAAGCUG
How it was run: as §1

biotinyl-Met-oxazolone = test: self-aminoacylation, catalytic enhancement (BMO) (fold over background); higher = more active; k-Seq, kA / k0A0; sequences stand for … in GGGAAUGGAUCCACAUCUACGAAUUC…UUCACUGCAGACUUGACGAAGCUG
How it was run: as §1

biotinyl-Val-oxazolone = test: self-aminoacylation, catalytic enhancement (BVO) (fold over background); higher = more active; k-Seq, kA / k0A0; sequences stand for … in GGGAAUGGAUCCACAUCUACGAAUUC…UUCACUGCAGACUUGACGAAGCUG
How it was run: as §1

biotinyl-Leu-oxazolone = test: self-aminoacylation, catalytic enhancement (BLO) (fold over background); higher = more active; k-Seq, kA / k0A0; sequences stand for … in GGGAAUGGAUCCACAUCUACGAAUUC…UUCACUGCAGACUUGACGAAGCUG
How it was run: as §1

biotinyl-Trp-oxazolone = test: self-aminoacylation, catalytic enhancement (BWO) (fold over background); higher = more active; k-Seq, kA / k0A0; sequences stand for … in GGGAAUGGAUCCACAUCUACGAAUUC…UUCACUGCAGACUUGACGAAGCUG
How it was run: as §1

Row | Sequence | self-aminoacylation (biotinyl-Phe-oxazolone) | self-aminoacylation (biotinyl-Ile-oxazolone) | self-aminoacylation (biotinyl-Met-oxazolone) | self-aminoacylation (biotinyl-Val-oxazolone) | self-aminoacylation (biotinyl-Leu-oxazolone) | self-aminoacylation (biotinyl-Trp-oxazolone)
1 | AUUCACCCAGGUCAUCAGGUG [Fam2.2 aminoacylation ribozyme variant] | 0.632 | 0.991 | 1 | 1.01 | 1.08 | 0.804
2 | AUUCACCCAGGUCAUCGGGAG [Fam2.2 aminoacylation ribozyme variant] | 0.732 | 1.22 | 1.28 | 1.48 | 1.28 | 1.47
3 | AUUCACCCAGGUCAUCGGGUA [Fam2.2 aminoacylation ribozyme variant] | 12.7 | 2.25 | 2.51 | 2.27 | 2.76 | 2.93
4 | AUUCACCCAGGUCAUGGGGUG [Fam2.2 aminoacylation ribozyme variant] | 67.1 | 5.18 | 10.2 | 5.23 | 13.8 | 8.21
5 | AUUCACCCAGGUGAUCGGGUG [Fam2.2 aminoacylation ribozyme variant] | 25.7 | 3.64 | 4.45 | 3.59 | 3.44 | 4.5
6 | AUUCACCCAGUUCAUCGGGUG [Fam2.2 aminoacylation ribozyme variant] | 10.8 | 2.48 | 2.52 | 2.72 | 2.6 | 2.33
7 | AUUCACCCGGGUCAUCGGGUG [Fam2.2 aminoacylation ribozyme variant] | 42.6 | 4.1 | 5.16 | 4.44 | 6.18 | 6.14
8 | AUUCACCGAGGUCAACGGGUG [Fam2.2 aminoacylation ribozyme variant] | 36.9 | 3.52 | 5.75 | 3.27 | 8.52 | 5.14
9 | AUUCACCGAGGUCAUCGGCUG [Fam2.2 aminoacylation ribozyme variant] | 12.4 | 2.29 | 2.26 | 2.26 | 2.38 | 1.93
10 | AUUCACCGAGGUCAUCGGGCG [Fam2.2 aminoacylation ribozyme variant] | 24.4 | 3.19 | 3.34 | 3.86 | 3.66 | 2.96
11 | AUUCACCGAGGUCAUUGGGUG [Fam2.2 aminoacylation ribozyme variant] | 42.6 | 3.83 | 6.99 | 3.88 | 8.02 | 5.88
12 | AUUCACCGAGGUCCUCGGGUG [Fam2.2 aminoacylation ribozyme variant] | 84.6 | 6.76 | 11.3 | 6.63 | 14.6 | 9.2
13 | AUUCACCGAGGUCUUCGGGUG [Fam2.2 aminoacylation ribozyme variant] | 40.7 | 3.97 | 4.94 | 4.69 | 7.58 | 6.52
14 | AUUCACCUAAAUCAUCGGGUG [Fam2.2 aminoacylation ribozyme variant] | 34.6 | 3.11 | 5.3 | 2.56 | 6.91 | 5.55
15 | AUUCACCUAAGACAUCGGGUG [Fam2.2 aminoacylation ribozyme variant] | 33.4 | 3.05 | 4.49 | 3.13 | 5.92 | 4.54
16 | AUUCACCUAAGUAAUCGGGUG [Fam2.2 aminoacylation ribozyme variant] | 24.9 | 2.81 | 4.37 | 2.15 | 5.7 | 4.33
17 | AUUCACCUAAGUCAUCAGGUG [Fam2.2 aminoacylation ribozyme variant] | 11 | 2.23 | 3.1 | 2.07 | 3.53 | 3.31
18 | AUUCACCUAAGUCAUCGCGUG [Fam2.2 aminoacylation ribozyme variant] | 110 | 6.77 | 13.4 | 7.56 | 17.7 | 15.7
19 | AUUCACCUAAGUCAUCGGGUC [Fam2.2 aminoacylation ribozyme variant] | 1.31 | 1.01 | 1.42 | 1.53 | 1.13 | 1.78
20 | AUUCACCUAAGUGAUCGGGUG [Fam2.2 aminoacylation ribozyme variant] | 9.9 | 1.65 | 2.25 | 1.77 | 2.94 | 2
21 | AUUCACCUAAGUUAUCGGGUG [Fam2.2 aminoacylation ribozyme variant] | 51 | 3.83 | 6.15 | 3.96 | 8.59 | 5.61
22 | AUUCACCUACGUAAUCGGGUG [Fam2.2 aminoacylation ribozyme variant] | 45.9 | 3.09 | 6.45 | 3.4 | 9.03 | 5.66
23 | AUUCACCUACGUCAUCGGGUA [Fam2.2 aminoacylation ribozyme variant] | 0.967 | 1.58 | 1.94 | 1.61 | 1.96 | 2.18
24 | AUUCACCUACGUUAUCGGGUG [Fam2.2 aminoacylation ribozyme variant] | 63.3 | 3.98 | 7.55 | 4.17 | 9.22 | 6.51
25 | AUUCACCUAGAUCAUCGAGUG [Fam2.2 aminoacylation ribozyme variant] | 1.68 | 1.14 | 1.33 | 1.32 | 1.64 | 0.729
26 | AUUCACCUAGAUCAUCGGCUG [Fam2.2 aminoacylation ribozyme variant] | 0.62 | 1.69 | 1.56 | 1.89 | 1.81 | 1.63

Row | Sequence | self-aminoacylation (biotinyl-Phe-oxazolone) | self-aminoacylation (biotinyl-Ile-oxazolone) | self-aminoacylation (biotinyl-Met-oxazolone) | self-aminoacylation (biotinyl-Val-oxazolone) | self-aminoacylation (biotinyl-Leu-oxazolone) | self-aminoacylation (biotinyl-Trp-oxazolone)
27 | AUUCACCUAGAUCAUCGGGCG [Fam2.2 aminoacylation ribozyme variant] | 8.81 | 1.96 | 3.12 | 1.93 | 2.33 | 1.28
28 | AUUCACCUAGAUCAUCGGGUG [Fam2.2 aminoacylation ribozyme variant] | 14.9 | 2.1 | 2.8 | 2.22 | 3.47 | 2.95
29 | AUUCACCUAGAUCAUCGGGUU [Fam2.2 aminoacylation ribozyme variant] | 0.554 | 1.01 | 0.967 | 1.11 | 1.17 | 1.26
30 | AUUCACCUAGAUCAUCGUGUG [Fam2.2 aminoacylation ribozyme variant] | 1.49 | 0.956 | 1.36 | 0.999 | 1.38 | 1.06
31 | AUUCACCUAGAUCUUCGGGUG [Fam2.2 aminoacylation ribozyme variant] | 12.3 | 2.18 | 3.09 | 2.54 | 3.75 | 2.8
32 | AUUCACCUAGAUGAUCGGGUG [Fam2.2 aminoacylation ribozyme variant] | 13.7 | 2.32 | 2.77 | 2.62 | 2.71 | 3.34
33 | AUUCACCUAGAUUAUCGGGUG [Fam2.2 aminoacylation ribozyme variant] | 53.7 | 4.48 | 7.21 | 4.18 | 9 | 6.65
34 | AUUCACCUAGCCCAUCGGGUG [Fam2.2 aminoacylation ribozyme variant] | 13.6 | 2 | 2.92 | 2.58 | 3.35 | 3.11
35 | AUUCACCUAGCGCAUCGGGUG [Fam2.2 aminoacylation ribozyme variant] | 10 | 1.55 | 1.72 | 1.68 | 2.96 | 2.14
36 | AUUCACCUAGCUCAGCGGGUG [Fam2.2 aminoacylation ribozyme variant] | 10.6 | 2.08 | 2.68 | 2.09 | 3.49 | 2.83
37 | AUUCACCUAGCUCAUCGCGUG [Fam2.2 aminoacylation ribozyme variant] | 34.7 | 2.98 | 4.26 | 3.28 | 6.1 | 5.18
38 | AUUCACCUAGCUCAUCGGCUG [Fam2.2 aminoacylation ribozyme variant] | 3.23 | 1.67 | 1.92 | 1.96 | 2.05 | 1.25
39 | AUUCACCUAGCUCAUCUGGUG [Fam2.2 aminoacylation ribozyme variant] | 5.43 | 1.17 | 1.3 | 1.05 | 1.52 | 0.967
40 | AUUCACCUAGGACACCGGGUG [Fam2.2 aminoacylation ribozyme variant] | 15.6 | 3.57 | 3.51 | 3.63 | 3.94 | 3.19
41 | AUUCACCUAGGACAUCGGCUG [Fam2.2 aminoacylation ribozyme variant] | 10.9 | 1.7 | 2.02 | 1.79 | 2.32 | 2.64
42 | AUUCACCUAGGACAUCGGGUG [Fam2.2 aminoacylation ribozyme variant] | 18.8 | 2.55 | 3.19 | 2.6 | 3.89 | 3.1
43 | AUUCACCUAGGACAUCGGGUU [Fam2.2 aminoacylation ribozyme variant] | 3.67 | 1.47 | 1.39 | 1.77 | 1.38 | 1.25
44 | AUUCACCUAGGAGAUCGGGUG [Fam2.2 aminoacylation ribozyme variant] | 34.3 | 3.82 | 4.82 | 3.54 | 7.83 | 5.46
45 | AUUCACCUAGGCCAUCGGGGG [Fam2.2 aminoacylation ribozyme variant] | 10.8 | 2.5 | 2.64 | 2.82 | 4.55 | 2.28
46 | AUUCACCUAGGCCAUCUGGUG [Fam2.2 aminoacylation ribozyme variant] | 13.2 | 1.54 | 2.74 | 2.05 | 3.29 | 2.35
47 | AUUCACCUAGGCCAUGGGGUG [Fam2.2 aminoacylation ribozyme variant] | 42.5 | 4.58 | 8.03 | 3.87 | 10.2 | 6.1
48 | AUUCACCUAGGCGAUCGGGUG [Fam2.2 aminoacylation ribozyme variant] | 20.4 | 2.88 | 3.5 | 3.52 | 4.89 | 3.78
49 | AUUCACCUAGGGAAUCGGGUG [Fam2.2 aminoacylation ribozyme variant] | 36.4 | 3.54 | 5.05 | 3.23 | 7.44 | 4.86
50 | AUUCACCUAGGGCAUAGGGUG [Fam2.2 aminoacylation ribozyme variant] | 38.6 | 3.22 | 4.74 | 2.76 | 6.33 | 4.16
51 | AUUCACCUAGGGCAUCGAGUG [Fam2.2 aminoacylation ribozyme variant] | 1.76 | 1.26 | 1.45 | 1.2 | 1.65 | 0.91
